Consider one molecule from patent US20110126299A1 (published 2011).

The assay has as its target T1, λ2^315 Ig L-chain (idiotype, Id) peptide on I-E^d (mouse).
T1 peptide: ALWFRNHFVFG
In words: activation reporter or marker.

B1: 4B2A1 TCR (TCR, V domains shown)
Valpha: QQKVQQSPESLIVPEGAMTSLNCTFSDSASQYFAWYRQQSGKAPKALMSIFSNGEKEEGRFTIHLNKASLHFSLHIRDSQPSDSALYLCAVRGPNTGNYKYVFGAGTRLKVIA
Vbeta: EAAVTQSPRNKVAVTGGKVTLSCNQTNNHNNMYWYRQDTGHGLRLIHYSYGAGSTEKGDIPDGYKASRPSQENFSLILELATPSQTSVYFCASGDAGQGHSDYTFGSGTRLLVI
Turning to B1, the binding result is listed as “recognises”.
